Patent publication US20120253008A1 (Ablynx, published 2012)

What follows are binders tested against T1, human serum albumin (human, UniProt P02768 25-609) (assay: phage ELISA, phage titration on coated HSA, near-infrared fluorescence).
T1 construct: also called HSA
Description: 5-fold serial dilutions of phage clones (starting from ˜5×10¹¹ phage) were added to 96-well Nunc Maxisorp plates coated with human serum albumin (2 μg/ml in PBS, overnight at 4° C.; plates were blocked with Superblock T20 (Pierce) for 1 h at room temperature). […] The amount of IRDye bound was measured on Odyssey (LI-COR Biosciences). The dilution of phage was plotted against measured near-infrared fluorescence intensity (FIG. 2).
After respectively three and four selection rounds, monoclonal phage were screened for binding on HSA, in the manner described in Example 2. Clones that bind to HSA (FIGS. 7A to 7C and Table V) were screened in phage competition ELISA, in the manner described in Example 5. The ratio of phage binding was calculated by the following equation: fluorescence signal of well with 2 μM competitor/fluorescence signal of well with no competitor (Table VI).

Binding result, binds:
AARWWDYDVFGGGTPVGG [59A5], AARFWDYDVFGGGTPVGG [59B2], AARYWDFDAFGGGTPVGG [59B3], AARYWDWDVFGGGTPVGG [59C8], AARYWDFDVFGGGSPVGG [59H10], AARYWDYDVFGGGTPVDG [60E6]

What follows are binders tested against T1, human serum albumin (assay: phage ELISA and/or solution binding competition ELISA on HSA).

Binding result, binds:
AALYRDYDVFAGGTPGGG [PMP54E2], AAAYLDYDVFGGGTPVGG [PMP56G5], AALYGDYDVFGGGTPLGE [PMP54F2], AAAYWDYDVFGGGTSAGT [PMP54H2], AAVYWDYDVFGGGTSLGD [PMP56B6], AARYYDYDVFGGGTPLGG [PMP56E6], AARYYDYDVFGGGTPLGA [PMP56E3], AARYYDYDVFGGGTPLGA [PMP56C3], AARYYDYDVFGGGTPLGA [PMP56E5], AAYYYDYDVFGGGTPGGE [PMP54G3 (SEQ ID NO: 44)], AASYRDYDVFGGGTPRGW [PMP54H3], AASYLDYDVFGGGTPFGE [PMP54H1], AAWYRDYDVFGGGTDEGS [PMP54B1], AAWYRDYDVFGGGTPLGA [PMP56H1], AARYYDYDVFGGGTVVGE [PMP54B2], AARYPDYDVFGGGTPSGG [PMP56C6], AARYPDYDVFGGGTPVGG [PMP54C2], AADYYDYDVFGGGTSVGE [PMP56A1], AARYYDYDVFGGGTPLGG [PMP56F5], AAFYMDYDVFGGGTPRGQ [PMP56A4], AAYYFDYDVFGGGTPEGT [PMP56C1], AATYLDYDVFGGGTPDGR [PMP54E3], AAWYFDYDVFGGGTADGE [PMP56H6], AARYFDYDVFGGGTDLGD [PMP54D2], AAIYRDYDVFGGGTPLGQ [PMP54G2], AARYLDYDVFGGGTDVGS [PMP54F3], AAVYDDYDVFGGGTPVGG [PMP56B3], AALYRDYDVFGGGTPVGG [PMP56B5], AALYRDYDVFGGGTPVGG [PMP56F6], AARYYDYDVFGGGTAGGQ [PMP56A6], AAPYHDYDVFGGGTPVGE [PMP56A2], AAWYFDYDVFGGGTADGE [PMP56F3], AAFYWDYDVFGGGTDPGA [PMP56H3], AARYLDYDVFGGGTPIGE [PMP54C3], AAFYWDYDVFGGGTDPGA [PMP56G3], AAMYYDYDVFGGGTPTGA [PMP56C5], AATYYDYDVFGGGTPLGQ [PMP56D5], AATYFDYDVFGGGTAVGS [PMP54G1], AAYYYDYDVFGGGTPGGE [PMP56E1], AARYWDYDVFGGGTPQGE [PMP56B1], AARYLDYDVFGGGTQLGS [PMP54D3], AARYFDYDVFGGGTPAGD [PMP56B2], AARYWDYDVFGGGTDPGG [PMP56G2], AAYYRDYDVFGGGTPVGE [PMP56A5], AALYKDYDVFGGGTPGGE [PMP56D4], AARYYDYDVFGGGTPLGG [PMP56G6], AAFYRDYDVFGGGTGSGN [PMP54E1], AARYYDYDVFGGGTRSGE [PMP54C1], AARYWDYDVFGGGTPQGE [PMP56C2], AAWYTDYDVFGGGTPQGG [PMP56F1], AAYYFDYDVFGGGTPEGT [PMP56G1], AALYRDYDVFGGGTQVGE [PMP54G3 (SEQ ID NO: 49)]
